Assay: carboxylate reductase enzyme activity assay (N7-acetyl-7-aminoheptanoate to N7-acetyl-7-aminoheptanal), NADPH consumption at 340 nm
Format: biochemical
Conditions: purified enzyme enhanced by gene product of sfp; 2 mM N7-acetyl-7-aminoheptanoate, 1 mM ATP, 1 mM NADPH, pH 7.5, room temperature, 20 min; FIG. 10
Experimental: The activity of each of the N-terminal His-tagged carboxylate reductases of SEQ ID NOs: 3, 5, and 6 (see Examples 2 and 3, and FIG. 6B, FIGS. 6D-6E) for converting N7-acetyl-7-aminoheptanoate to N7-acetyl-7-aminoheptanal was assayed in triplicate in a buffer composed of a final concentration of 50 mM HEPES buffer (pH=7.5), 2 mM N7-acetyl-7-aminoheptanoate, 10 mM MgCl2, 1 mM ATP, and 1 mM NADPH. The assays were initiated by adding purified carboxylate reductase and phosphopantetheine transferase or the empty vector control to the assay buffer containing the N7-acetyl-7-aminoheptanoate then incubated at room temperature for 20 min. The consumption of NADPH was monitored by absorbance at 340 nm.

B1: SEQ ID NO: 5: Mycobacterium massiliense carboxylate reductase, N-terminal HIS tagged (protein, listed as Mycobacterium abscessus)
chain: MTNETNPQQEQLSRRIESLRESDPQFRAAQPDPAVAEQVLRPGLHLSEAIAALMTGYAERPALGERARELVIDQDGRTTLRLLPRFDTTTYGELWSRTTSVAAAWHHDATHPVKAGDLVATLGFTSIDYTVLDLAIMILGGVAVPLQTSAPASQWTTILAEAEPNTLAVSIELIGAAMESVRATPSIKQVVVFDYTPEVDDQREAFEAASTQLAGTGIALETLDAVIARGAALPAAPLYAPSAGDDPLALLIYTSGSTGAPKGAMHSENIVRRWWIREDVMAGTENLPMIGLNFMPMSHIMGRGTLTSTLSTGGTGYFAASSDMSTLFEDMELIRPTALALVPRVCDMVFQRFQTEVDRRLASGDTASAEAVAAEVKADIRDNLFGGRVSAVMVGSAPLSEELGEFIESCFELNLTDGYGSTEAGMVFRDGIVQRPPVIDYKLVDVPELGYFSTDKPHPRGELLLKTDGMFLGYYKRPEVTASVFDADGFYMTGDIVAELAHDNIEIIDRRNNVLKLSQGEFVAVATLEAEYANSPVVHQIYVYGSSERSYLLAVVVPTPEAVAAAKGDAAALKTTIADSLQDIAKEIQLQSYEVPRDFIIEPQPFTQGNGLLTGIAKLARPNLKAHYGPRLEQMYAEIAEQQAAELRALHGVDPDKPALETVLKAAQALLGVSSAELAADAHFTDLGGDSLSALSFSDLLRDIFAVEVPVGVIVSAANDLGGVAKFVDEQRHSGGTRPTAETVHGAGHTEIRAADLTLDKFIDEATLHAAPSLPKAAGIPHTVLLTGSNGYLGHYLALEWLERLDKTDGKLIVIVRGKNAEAAYGRLEEAFDTGDTELLAHFRSLADKHLEVLAGDIGDPNLGLDADTWQRLADTVDVIVHPAALVNHVLPYNQLFGPNVVGTAEIIKLAITTKIKPVTYLSTVAVAAYVDPTTFDEESDIRLISAVRPIDDGYANGYGNAKWAGEVLLREAHDLCGLPVAVFRSDMILAHSRYTGQLNVPDQFTRLILSLIATGIAPGSFYQAQTTGERPLAHYDGLPGDFTAEAITTLGTQVPEGSEGFVTYDCVNPHADGISLDNFVDWLIEAGYPIARIDNYTEWFTRFDTAIRGLSEKQKQHSLLPLLHAFEQPSAAENHGVVPAKRFQHAVQAAGIGPVGQDGTTDIPHLSRRLIVKYAKDLEQLGLL
modifications: N-terminal His tag; Mycobacterium abscessus subsp. bolletii
notes: Mycobacterium massiliense carboxylate reductase, N-terminal HIS tagged
For B1, the “acceptance of N7-acetyl-7-aminoheptanoate as substrate (NADPH consumption), confirmed against the empty vector control” value was “accepted N7-acetyl-7-aminoheptanoate as substrate”.
